# Tests used:
# [1] = target: Human astrovirus 2 capsid spike (Spike 2) (human astrovirus serotype 2); test: SEC
# [2] = target: Human astrovirus 6 capsid spike (Spike 6) (human astrovirus serotype 6); test: SEC
Substance,stoichiometry N [1],stoichiometry N [2]
Human astrovirus 2 capsid spike (Spike 2) (domain or fragment),2,–
Human astrovirus 6 capsid spike (Spike 6) (domain or fragment),–,2

# From PMC8229645
